Experimental data as given in IntAct's records for PubMed 27773430.

Assays:
pidd1_human PIDD1 = pidd1_human PIDD1 (UniProt Q9HB75)
casp2_rat Casp2 = casp2_rat Casp2 (UniProt P55215)
Chain of casp2_rat Casp2 (P55215 whole entry): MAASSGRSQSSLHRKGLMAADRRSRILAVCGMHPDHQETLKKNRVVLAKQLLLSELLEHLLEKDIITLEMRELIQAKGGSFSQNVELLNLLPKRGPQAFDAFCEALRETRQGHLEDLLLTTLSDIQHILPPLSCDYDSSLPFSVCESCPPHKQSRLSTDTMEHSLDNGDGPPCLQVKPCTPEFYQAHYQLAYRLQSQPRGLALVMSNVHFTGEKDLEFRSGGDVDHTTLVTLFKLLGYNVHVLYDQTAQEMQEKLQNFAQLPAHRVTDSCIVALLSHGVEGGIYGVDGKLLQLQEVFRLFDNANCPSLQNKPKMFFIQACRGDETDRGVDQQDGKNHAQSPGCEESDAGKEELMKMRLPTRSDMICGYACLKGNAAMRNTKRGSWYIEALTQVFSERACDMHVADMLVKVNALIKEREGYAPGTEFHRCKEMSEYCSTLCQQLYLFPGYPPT

Chain of pidd1_human PIDD1 (Q9HB75 whole entry): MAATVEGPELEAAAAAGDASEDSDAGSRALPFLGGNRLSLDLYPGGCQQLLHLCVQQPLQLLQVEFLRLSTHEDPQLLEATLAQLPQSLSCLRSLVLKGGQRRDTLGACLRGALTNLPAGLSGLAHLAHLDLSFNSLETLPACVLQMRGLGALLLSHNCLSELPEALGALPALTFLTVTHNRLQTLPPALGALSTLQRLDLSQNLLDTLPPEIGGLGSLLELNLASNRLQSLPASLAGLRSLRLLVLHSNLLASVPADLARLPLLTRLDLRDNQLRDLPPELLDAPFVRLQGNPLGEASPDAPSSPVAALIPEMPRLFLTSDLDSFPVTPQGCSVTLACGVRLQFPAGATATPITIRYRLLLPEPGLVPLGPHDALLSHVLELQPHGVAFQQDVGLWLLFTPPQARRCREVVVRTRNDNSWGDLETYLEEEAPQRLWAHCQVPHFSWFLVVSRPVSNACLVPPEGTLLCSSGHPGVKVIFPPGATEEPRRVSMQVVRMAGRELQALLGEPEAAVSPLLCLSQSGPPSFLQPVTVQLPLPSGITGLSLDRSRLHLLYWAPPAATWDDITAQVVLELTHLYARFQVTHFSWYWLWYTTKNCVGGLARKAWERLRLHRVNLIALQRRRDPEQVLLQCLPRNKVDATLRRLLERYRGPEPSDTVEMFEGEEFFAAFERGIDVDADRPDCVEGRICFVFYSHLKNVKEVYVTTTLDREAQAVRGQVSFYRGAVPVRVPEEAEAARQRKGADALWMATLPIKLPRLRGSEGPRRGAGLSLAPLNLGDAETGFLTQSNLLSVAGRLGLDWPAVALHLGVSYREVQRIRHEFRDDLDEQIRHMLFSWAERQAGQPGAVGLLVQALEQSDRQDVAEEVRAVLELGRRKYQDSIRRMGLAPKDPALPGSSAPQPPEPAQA
Chain of Death domain-containing protein CRADD (Homo sapiens), P78560 G128R (P78560 whole entry G128R, the tested form may be a part): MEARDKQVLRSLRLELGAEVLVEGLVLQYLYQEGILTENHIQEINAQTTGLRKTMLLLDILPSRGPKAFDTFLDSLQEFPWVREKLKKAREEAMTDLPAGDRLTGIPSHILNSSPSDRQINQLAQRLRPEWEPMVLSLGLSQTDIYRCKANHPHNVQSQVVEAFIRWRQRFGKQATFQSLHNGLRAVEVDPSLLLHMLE
Chain of Death domain-containing protein CRADD (Homo sapiens), P78560 R170H (P78560 whole entry R170H, the tested form may be a part): as the sequence (P78560 whole entry G128R, the tested form may be a part) above, with R128G, R170H counted along it
Chain of Death domain-containing protein CRADD (Homo sapiens), P78560 R170C (P78560 whole entry R170C, the tested form may be a part): as the sequence (P78560 whole entry G128R, the tested form may be a part) above, with R128G, R170C counted along it
Chain of Death domain-containing protein CRADD (Homo sapiens), P78560 F164C (P78560 whole entry F164C, the tested form may be a part): as the sequence (P78560 whole entry G128R, the tested form may be a part) above, with R128G, F164C counted along it

**Q.** What does the source list for “Death domain-containing protein CRADD (Homo sapiens), P78560 F164C”?
**A.** effect of a mutation on the interaction (pidd1_human PIDD1): with no effect; effect of a mutation on the interaction (casp2_rat Casp2): with no effect

**Q.** For “Death domain-containing protein CRADD (Homo sapiens), P78560 G128R”, which “effect of a mutation on the interaction” value (pidd1_human PIDD1) is on record?
**A.** The value was “disrupting interaction strength”.

**Q.** What about the “effect of a mutation on the interaction” value (casp2_rat Casp2) of the same substance?
**A.** The value was “decreasing interaction strength”.

**Q.** “Death domain-containing protein CRADD (Homo sapiens), P78560 R170C” was tested. Which “effect of a mutation on the interaction” value (pidd1_human PIDD1) did it give?
**A.** Its value is “decreasing interaction strength”.

**Q.** And the “effect of a mutation on the interaction” value (casp2_rat Casp2)?
**A.** The value was “decreasing interaction strength”.

**Q.** How did the “effect of a mutation on the interaction” value (pidd1_human PIDD1) turn out when “Death domain-containing protein CRADD (Homo sapiens), P78560 R170H” was run?
**A.** The value was “decreasing interaction strength”.

**Q.** And the “effect of a mutation on the interaction” value (casp2_rat Casp2)?
**A.** The value was “decreasing interaction strength”.
